From US20240342207, “MODIFIED NUCLEIC ACID COMPOSITIONS AND ASSOCIATED METHODS FOR TREATMENT OF PHENYLKETONURIA” (BOARD OF REGENTS, THE UNIVERSITY OF TEXAS SYSTEM, published 2024) come the findings set out here.

For series [1], the target named is T1, PAH (phenylalanine hydroxylase), wild type (Homo sapiens, UniProt P00439 P00439:1-452).
T1 sequence: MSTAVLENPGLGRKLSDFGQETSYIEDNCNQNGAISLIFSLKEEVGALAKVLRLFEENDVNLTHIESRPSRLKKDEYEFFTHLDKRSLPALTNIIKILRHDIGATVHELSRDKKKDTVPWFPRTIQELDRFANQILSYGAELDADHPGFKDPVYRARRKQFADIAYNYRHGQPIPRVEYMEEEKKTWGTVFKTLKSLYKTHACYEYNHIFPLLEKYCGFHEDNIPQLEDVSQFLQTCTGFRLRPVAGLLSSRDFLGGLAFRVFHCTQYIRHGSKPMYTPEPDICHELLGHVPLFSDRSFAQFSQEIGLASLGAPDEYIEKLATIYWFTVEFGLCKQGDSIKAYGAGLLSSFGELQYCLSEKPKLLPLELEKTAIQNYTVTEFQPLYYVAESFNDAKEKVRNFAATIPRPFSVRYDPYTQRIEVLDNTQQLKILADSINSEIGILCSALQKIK
In words: EMSA; 5 mM MgCl2, 100 mM KCl, 30 C. The following applies: tags: His-tag, pET-DEST42, E. coli BL21-CodonPlus (DE3)-RIPL, cobalt resin, label: 32P. The procedure:
RNA Electrophoretic Mobility Shift Assay (EMSA). The gel mobility shift assay was performed as previously described (42). Briefly, 500 ng recombinant His-tagged wild-type PAH or mutants were incubated with 0.035 μmol labeled probe in a RNA-protein binding buffer [(50 mM Tris-HCl 7.9, 10% glycerol, 100 mM KCl, 5 mM MgCl₂, 10 mM (3-ME, 0.1% NP40] for 30 min at 30° C. For cold RNA competition, 0.035 μmol radiolabeled RNA probes were first mixed with 7 μmol cold RNA competitors and then subjected to the gel shift assay.
On the technique in general: A gel shift assay detects complexes by their altered migration in electrophoresis.

Series [2] concerns the target T1, PAH (phenylalanine hydroxylase), wild …. In words: mutant mimic abolished interaction. The following applies: tags: His-tag, pET-DEST42, E. coli BL21-CodonPlus (DE3)-RIPL, cobalt resin.
Series [3] has the same target. In words: affinity similar to full-length HULC. Particulars: tags: His-tag, pET-DEST42, E. coli BL21-CodonPlus (DE3)-RIPL, cobalt resin.

As for CCAAAAUGCAUGUGUAUCUUUGG (ssRNA) [HULC 180-202 mutant EMSA probe], the binding result in series [1] is reported as “no binding”.

In the case of GGUGAGCUGCGUAUAGCUCGUC (ssRNA) [Pair 467-488 WT EMSA probe], the binding result in series [1] (stem-loop) is “binds”. Turning to CCAAAAUGCAUAUGUAUCUUUGG (ssRNA) [HULC 180-202 WT EMSA probe], the binding result in series [1] (stem-loop) was “binds”. For CAAAATGCATGTGTATCTTTG (XNA, 2'-F at all nucleotides) [HULC mutant mimic, 2'-F (A191G)], the binding result in series [2] is “no binding”. For the molecule GGUGAGCUGCGUGUAGCUCGUC (ssRNA) [Pair 467-488 mutant EMSA probe], in series [1], the binding result is on record as “no binding”. As to CAAAATGCATATGTATCTTTG (XNA, 2'-F at all nucleotides) [HULC mimic, 2'-F], the binding result in series [3] is on record as “binds”.
